Test results from patent US11655308B2, “HM-3 fusion protein and application thereof” (TASLY BIOPHARMACEUTICALS CO., LTD., priority 2017, dated 2023).

What was measured:
[1] = system: transgenic blood vessel fluorescent zebrafish; assay: In vivo anti-angiogenesis in zebrafish (SIVs area); design: area of SIVs: unit not given here; conditions: 500 ng/tail, 24 h
[2] = system: transgenic blood vessel fluorescent zebrafish; assay: In vivo anti-angiogenesis in zebrafish (SIVs area); design: area of SIVs: unit not given here; conditions: for inhibition rate of angiogenesis / area of SIVs: 24 h; for area of SIVs: normal control group 53193
Description: Experimental method: transgenic blood vessel fluorescent zebrafish was randomly selected and put into a six-well plate with 30 fish per well, and intravenously injected HM-3 polypeptide, TSL-1 fusion protein, TSL-2 fusion protein, TSL-3 fusion protein and TSL-4 fusion protein respectively in accordance with the dosage of 20 ng/tail and 66 ng/tail; the dosage was […] in Avastin positive control and the injection volume was 20 nL/tail; the zebrafish injected 20 nL/tail of buffer solution served as a solvent control group, and the zebrafish without any treatment served as a normal control group. 10 pieces of zebrafish were randomly selected from each group after processed for 24 h to observe the intestinal vessels of the transgenic zebrafish by a fluorescence microscope, as well as to take and maintain images. Image analysis was performed by Nikon MS-Elements D 3.10 to calculate the area (S) of SIVs (subintestinal vessel, SIV). The calculation formula of angiogenesis inhibition rate was as follows: Angiogenesis inhibition rate (%)=(1−S(Test sample group)/S(Normal control group))×100%
Statistical analysis was performed by variance analysis and Dunnett's T-test and the results were expressed as Mean±SD, where p<0.05 indicates a significant difference.

[3] = system: mice splenic lymphocyte proliferation stimulated by ConA; type: cell-based
Description: Experimental method: mice orbit was by bloodletting to death, and immediately immersed in 75% ethanol for 5-10 min, and then the spleen was removed on a clean bench and placed in PBS. The spleen was placed on a sterile cell strainer (200 mesh) and ground with a syringe nozzle; during grinding process, PBS was added continuously; the slurry was collected and centrifuged (1000 rpm for 5 min), then cells were washed 3 times with Tris-ammonium chloride solution, and washed again with a medium, and then re-suspended in the medium. Finally, trypan blue living cell staining was performed on the cells, and the survival rate was more than 95%. The concentration of viable cells was adjusted to 2×10^6/mL. […] was added to each well of a 96-well plate, meanwhile, ConA (concanavalin to simulate splenocyte proliferation) and drugs were added to each well. Six duplicates were set in each group.
The 96-well plate was incubated for 48 h in a 5% CO2 incubator at 37° C. 5 mg/mL of MTT was added to the 96-well plate, 20 μL for each well, and then it was incubated continuously for 4 h in the incubator. The culture medium in the 96-well plate was discarded and 100 μL DMSO was added to each well and mixed gently. Absorbance was measured by a microplate reader at the wavelength of 570 nm and reference wavelength of 630 nm.
Proliferation inhibition rate (PI) was calculated according to formula:
[formula] wherein, Atest is the absorbance of dosing group, and Acontrol is the absorbance of negative control. Test results were expressed as mean±SD, and statistical T test was performed. *P<0.05 indicates significant difference, **P<0.01 indicates extremely significant difference. Based upon the results, the efficacy of the fusion protein against rheumatoid arthritis was screened.
In the P4 control group, TSL-4 fusion protein served as a control agent.

human macrophage U937 = assay: TNF-α production by LPS-induced human macrophage U937 (ELISA); type: cell-based; conditions: 9 μM; LPS 1 μg/mL, 48 h; negative group 77.6±19.6
Description: Experimental method: Human macrophage U937 was cultured in RPMI-1640 medium containing 10% fetal bovine serum and double antibodies in a constant temperature incubator at 37° C. under the condition of 5% CO2, and the medium was replaced every 2 days. U937 cells in the logarithmic phase were collected, resuspended and adjusted to the concentration of 5×10^5/mL. 100 μL of cells was added to each well of a 96-well plate overnight and induced with LPS (1 μg/mL) in the following day, where n=3. At the same time, the cells were treated with agents, and respectively divided into a positive control group adalimumab, an HM-3 polypeptide group, an mPEG-SC-HM-3 polypeptide group, an HM-3 fusion protein (TSL-1, TSL-2, TSL-3, TSL-4) group, and the specific dosing scheme was shown in Table 5.
48 h after the agents worked, culture medium was collected and centrifuged, and supernatant was taken to measure the content of TNF-α therein by ELISA. Test results were expressed as mean±SD, and statistical T test was performed. *P<0.05 indicates significant difference, **P<0.01 indicates extremely significant difference. Based upon the results, the efficacy of the HM-3 fusion protein against rheumatoid arthritis was screened.

Molecule | inhibition rate of angiogenesis [1] [%] | area of SIVs ([1]; normal control group 53193) | inhibiting effect on angiogenesis ([2]; 20 ng/tail) | inhibition rate of angiogenesis ([2]; 20 ng/tail iv) [%] | area of SIVs ([2]; 20 ng/tail iv) | inhibition rate of angiogenesis ([2]; 66 ng/tail iv) [%] | area of SIVs ([2]; 66 ng/tail iv) | optimal (best) inhibition rate of splenic lymphocyte proliferation ([3]; ConA 5 μg/mL, 48 h, MTT, best of the tested concentrations) [%] | inhibition rate compared with the positive control group ([3]; positive group Dexamethasone 50 μmol/L) | TNF-α content in cell supernatant (human macrophage U937) [pg/mL]
Avastin: positive control in the zebrafish angiogenesis test | 29 | 37853 | – | – | – | – | – | – | – | –
IgG2-Fc-(GGGGS)3-HM-3 (protein) VECPPCPAPPVAGPSVFLFPPKPKDTLMISRTPEVTCVVVDVSHEDPEVQFNWYVDGVEVHNAKTKPREEQFNSTFRVVSVLTVVHQDWLNGKEYKCKVSNKGLPAPIEKTISKTKGQPREPQVYTLPPSREEMTKNQVSLTCLVKGFYPSDISVEWESNGQPENNYKTTPPMLDSDGSFFLYSKLTVDKSRWQQGNVFSCSVMHEALHNHYTQKSLSLSPGKGGGGSGGGGSGGGGSIVRRADRAAVPGGGGRGD | – | – | significant inhibitory effect | 23 | 40705 | 27 | 38660 | 61.4 | higher than that of the positive control group | 38.6 ± 12.9
